Test results published in patent US20110117017A1, “PEPTIDES WITH PROPERTIES OF AN […] FOR THE ALPHA 1A […] RECEPTOR AND USES THEREOF” (priority 2006, published 2011).

Biological target: T1, alpha1b adrenergic receptor (expressed in Pichia pastoris, membranes) (Homo sapiens (Human)), P35368
T1 chain: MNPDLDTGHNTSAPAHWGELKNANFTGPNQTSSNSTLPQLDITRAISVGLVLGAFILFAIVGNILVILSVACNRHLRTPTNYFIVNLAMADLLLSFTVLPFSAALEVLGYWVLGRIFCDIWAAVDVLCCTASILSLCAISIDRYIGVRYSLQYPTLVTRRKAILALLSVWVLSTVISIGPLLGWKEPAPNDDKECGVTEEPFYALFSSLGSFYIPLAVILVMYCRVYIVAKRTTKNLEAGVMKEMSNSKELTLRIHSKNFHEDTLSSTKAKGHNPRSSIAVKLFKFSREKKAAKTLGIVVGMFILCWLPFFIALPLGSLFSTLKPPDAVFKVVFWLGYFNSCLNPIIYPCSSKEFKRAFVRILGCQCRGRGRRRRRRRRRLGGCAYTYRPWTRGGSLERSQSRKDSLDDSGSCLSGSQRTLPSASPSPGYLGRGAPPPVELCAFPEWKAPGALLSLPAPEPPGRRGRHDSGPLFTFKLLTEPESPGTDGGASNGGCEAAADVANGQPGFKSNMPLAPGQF
Assay: displacement of 3H-prazosin (1 nM) from yeast membranes, filtration

B1: AdTx1 peptide (peptide)
peptide: LTCVTSKSIFGITTEDCPDGQNLCFKRRHYVVPKIYDSTRGCAATCPIPENYDSIHCCKTDKCNE
modifications: not checked
- IC50: 2.3 µM
